Data set [1] concerns HeLa Kyoto. The data set is described as follows: solubility change mitosis vs G1/S (difference of NP-40 vs SDS log2 ratios) (log2 ratio difference); higher = more soluble in mitosis.
For data set [2], the system named is HeLa Kyoto. The data set is described as follows: solubility in G1/S (NP-40 vs SDS abundance) (log2 ratio); higher = more soluble. The note with it: cell cycle stage: G1/S.
Data set [3] concerns HeLa Kyoto. The data set is described as follows: melting temperature (median over replicates), in situ; higher = more thermally stable.
Data set [4] concerns HeLa Kyoto. The data set is described as follows: thermal stability score vs G1/S (z-score of summed log2 fold changes over temperatures); higher = more thermally stable than in G1/S.
Where [5] appears, read: cell cycle stage: early G1 (4.5 h after nocodazole release).
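Throughout, for melting temperature (median over replicates), in situ: HeLa Kyoto cells synchronized by double thymidine or nocodazole block, proteins quantified by TMT10plex mass spectrometry, three independent biological replicates.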
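Throughout, for solubility change mitosis vs G1/S (difference of NP-40 vs SDS log2 ratios): synchronized HeLa Kyoto cells (double thymidine block for G1/S, nocodazole release for mitosis), protein amounts in NP-40 versus SDS lysates quantified by mass spectrometry, three biological replicates.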
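Throughout, for solubility in G1/S (NP-40 vs SDS abundance): HeLa Kyoto cells arrested at G1/S by double thymidine block, proteins quantified by TMT10plex mass spectrometry in mild NP-40 versus SDS extracts, three biological replicates.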
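Throughout, for thermal stability score vs G1/S (z-score of summed log2 fold changes over temperatures): synchronized HeLa Kyoto cells, proteins quantified by TMT10plex mass spectrometry, three biological replicates, mitosis taken 0.5 h after nocodazole release, G1/S directly after double thymidine block.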

Take “MLYLIGLGLGDAKDITVKGLEVVRRCSRVYLEAYTSVLTVGKEALEEFYGRKLVVADREEVEQEADNILKDADISDVAFLVVGDPFGATTHSDLVLRATKLGIPYRVIHNASIMNAVGCCGLQLYKFGETVSIVFWTDTWRPESFFDKVKKNRQNGMHTLCLLDIKVKEQSLENLIKGRKIYEPPRYMSVNQAAQQLLEIVQNQRIRGEEPAVTEETLCVGLARVGADDQKIAAGTLRQMCTVDLGEPLHSLIITGGSIHPMEMEMLSLFSIPENSSESQSINGL [DPH5]”: the “solubility change mitosis (log2)” value with HeLa Kyoto [1] is -0.136. Besides, in the data set with HeLa Kyoto [2], the “solubility in G1/S (log2)” value stood at 0.11. Further, the melting temperature was 54.6 °C with HeLa Kyoto [3] (cell cycle stage: G1/S) and 55.3 °C in the data set on HeLa Kyoto [3] (cell cycle stage: mitosis). Moreover, the thermal stability score was 1.75 with HeLa Kyoto [4] (setting [5]) and 1.39 in the data set on HeLa Kyoto [4] (cell cycle stage: mitosis).

On to “MMAAGAALALALWLLMPPVEVGGAGPPPIQDGEFTFLLPAGRKQCFYQSAPANASLETEYQVIGGAGLDVDFTLESPQGVLLVSESRKADGVHTVEPTEAGDYKLCFDNSFSTISEKLVFFELIFDSLQDDEEVEGWAEAVEPEEMLDVKMEDIKESIETMRTRLERSIQMLTLLRAFEARDRNLQEGNLERVNFWSAVNVAVLLLVAVLQVCTLKRFFQDKRPVPT [TMED1]”, for which, in the data set with HeLa Kyoto [1], the “solubility change mitosis (log2)” value was -0.147. Besides, in the data set with HeLa Kyoto [2], the “solubility in G1/S (log2)” value turned out to be 0.437. Moreover, the melting temperature with HeLa Kyoto [3] (cell cycle stage: G1/S) came to 55.1 °C; in the data set with HeLa Kyoto [3] (cell cycle stage: mitosis), 57.2 °C. In addition, the thermal stability score with HeLa Kyoto [4] (setting [5]) was determined as 2.89; in the data set with HeLa Kyoto [4] (cell cycle stage: mitosis), 2.9.

In the case of “MMDLRNTPAKSLDKFIEDYLLPDTCFRMQINHAIDIICGFLKERCFRGSSYPVCVSKVVKGGSSGKGTTLRGRSDADLVVFLSPLTTFQDQLNRRGEFIQEIRRQLEACQRERAFSVKFEVQAPRWGNPRALSFVLSSLQLGEGVEFDVLPAFDALGQLTGGYKPNPQIYVKLIEECTDLQKEGEFSTCFTELQRDFLKQRPTKLKSLIRLVKHWYQNCKKKLGKLPPQYALELLTVYAWERGSMKTHFNTAQGFRTVLELVINYQQLCIYWTKYYDFKNPIIEKYLRRQLTKPRPVILDPADPTGNLGGGDPKGWRQLAQEAEAWLNYPCFKNWDGSPVSSWILLAESNSADDETDDPRRYQKYGYIGTHEYPHFSHRPSTLQAASTPQAEEDWTCTIL [OAS1]”, the “solubility change mitosis (log2)” value with HeLa Kyoto [1] was -0.0843. Also, in the data set with HeLa Kyoto [2], the “solubility in G1/S (log2)” value turned out to be 0.134. The values for the melting temperature with HeLa Kyoto [3] (cell cycle stage: G1/S) and in the data set with HeLa Kyoto [3] (cell cycle stage: mitosis) were 50.5 °C and 49.5 °C, respectively. For the same sequence, the figures for the thermal stability score in the data set with HeLa Kyoto [4] (setting [5]) and in the data set on HeLa Kyoto [4] (cell cycle stage: mitosis) were -0.255 and 0.00402, respectively.

For the sequence “MMGHRPVLVLSQNTKRESGRKVQSGNINAAKTIADIIRTCLGPKSMMKMLLDPMGGIVMTNDGNAILREIQVQHPAAKSMIEISRTQDEEVGDGTTSVIILAGEMLSVAEHFLEQQMHPTVVISAYRKALDDMISTLKKISIPVDISDSDMMLNIINSSITTKAISRWSSLACNIALDAVKMVQFEENGRKEIDIKKYARVEKIPGGIIEDSCVLRGVMINKDVTHPRMRRYIKNPRIVLLDSSLEYKKGESQTDIEITREEDFTRILQMEEEYIQQLCEDIIQLKPDVVITEKGISDLAQHYLMRANITAIRRVRKTDNNRIARACGARIVSRPEELREDDVGTGAGLLEIKKIGDEYFTFITDCKDPKACTILLRGASKEILSEVERNLQDAMQVCRNVLLDPQLVPGGGASEMAVAHALTEKSKAMTGVEQWPYRAVAQALEVIPRTLIQNCGASTIRLLTSLRAKHTQENCETWGVNGETGTLVDMKELGIWEPLAVKLQTYKTAVETAVLLLRIDDIVSGHKKKGDDQSRQGGAPDAGQE [CCT3]”, the “solubility change mitosis (log2)” value in the data set on HeLa Kyoto [1] is -0.131. In addition, the “solubility in G1/S (log2)” value in the data set with HeLa Kyoto [2] worked out at 0.216. Also, the figures for the melting temperature with HeLa Kyoto [3] (cell cycle stage: G1/S) and with HeLa Kyoto [3] (cell cycle stage: mitosis) were 54 °C and 53.6 °C, respectively. For the same sequence, the thermal stability score in the data set on HeLa Kyoto [4] (setting [5]) is 0.0574; with HeLa Kyoto [4] (cell cycle stage: mitosis), -0.798.

With “MMLGTEGGEGFVVKVRGLPWSCSADEVQRFFSDCKIQNGAQGIRFIYTREGRPSGEAFVELESEDEVKLALKKDRETMGHRYVEVFKSNNVEMDWVLKHTGPNSPDTANDGFVRLRGLPFGCSKEEIVQFFSGLEIVPNGITLPVDFQGRSTGEAFVQFASQEIAEKALKKHKERIGHRYIEIFKSSRAEVRTHYDPPRKLMAMQRPGPYDRPGAGRGYNSIGRGAGFERMRRGAYGGGYGGYDDYNGYNDGYGFGSDRFGRDLNYCFSGMSDHRYGDGGSTFQSTTGHCVHMRGLPYRATENDIYNFFSPLNPVRVHIEIGPDGRVTGEADVEFATHEDAVAAMSKDKANMQHRYVELFLNSTAGASGGAYEHRYVELFLNSTAGASGGAYGSQMMGGMGLSNQSSYGGPASQQLSGGYGGGYGGQSSMSGYDQVLQENSSDFQSNIA [HNRNPH1]”, in the data set with HeLa Kyoto [1], the “solubility change mitosis (log2)” value is -0.00635. Also, in the data set with HeLa Kyoto [2], the “solubility in G1/S (log2)” value was determined as 0.047. The values for the melting temperature in the data set with HeLa Kyoto [3] (cell cycle stage: G1/S) and in the data set on HeLa Kyoto [3] (cell cycle stage: mitosis) were 47.5 °C and 48.2 °C, respectively. Moreover, the results for the thermal stability score in the data set with HeLa Kyoto [4] (setting [5]) and with HeLa Kyoto [4] (cell cycle stage: mitosis) were 3.39 and 8.7, respectively.

For the origin of these results see the supplement of paper PMC5998384.
